Assay results: paper PMC4658703 (2012)

Molecular target: IGF2 (Homo sapiens, UniProt P01344)
Sequence (P01344 25-91): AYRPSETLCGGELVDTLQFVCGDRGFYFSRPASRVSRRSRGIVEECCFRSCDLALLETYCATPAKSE

Kd: 15 nM
B1: IGF2R domain 11 (protein)
chain: MKSNEHDDCQVTNPSTGHLFDLSSLSGRAGFTAAYSKSGVVYMSICGENENCPPGVGACFGQTRISVGKANKRLRYVDQVLQLVYKDGSPCPSKSGLSYKSVISFVCRPEARPTNRPMLISLDKQTCTLFFSWHTPLACEQAT
